The source of these data is paper PMC11402289, “Structural basis for RNA recognition by the C-terminal RRM domain of human RBM45”.

To fix the notation:
T1: RBM45 RRM3 (Homo sapiens, UniProt Q8IUH3 370-476)
T1 sequence: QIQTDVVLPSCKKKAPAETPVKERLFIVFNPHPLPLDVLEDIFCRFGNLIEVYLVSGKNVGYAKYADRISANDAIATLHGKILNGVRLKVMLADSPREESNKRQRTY

B1: GAACGG (ssRNA)
RNA: GAACGG
B2: GGAGGG (ssRNA)
RNA: GGAGGG
B3: CGACGG (ssRNA)
RNA: CGACGG
B4: GGACAG (ssRNA)
RNA: GGACAG
B5: GUACGG (ssRNA)
RNA: GUACGG
B6: GGCCGG (ssRNA)
RNA: GGCCGG
B7: UGACGG (ssRNA)
RNA: UGACGG
B8: GCACGG (ssRNA)
RNA: GCACGG
B9: GGACGU (ssRNA)
RNA: GGACGU
B10: GGACGG RNA (ssRNA)
RNA: GGACGG
B11: polyU 6-mer RNA (ssRNA)
RNA: UUUUUU
B12: GGAAGG (ssRNA)
RNA: GGAAGG
B13: GGACUG (ssRNA)
RNA: GGACUG
B14: GGUCGG (ssRNA)
RNA: GGUCGG
B15: GGACGC (ssRNA)
RNA: GGACGC
B16: GGAUGG (ssRNA)
RNA: GGAUGG
B17: AGACGG (ssRNA)
RNA: AGACGG
B18: GGACGG ssDNA (ssDNA)
DNA: GGACGG
B19: GGACGA (ssRNA)
RNA: GGACGA
B20: GG(m6A)CGG RNA (ssRNA)
RNA: GGACGG
modifications: m6A at position 3
B21: GGGCGG (ssRNA)
RNA: GGGCGG
B22: GGACCG (ssRNA)
RNA: GGACCG
B23: GACGCAG ssDNA (ssDNA)
DNA: GACGCAG

The target of the first series is T1, RBM45 RRM3. As to the kind of experiment: fluorescence polarization; FP: 100 nM FAM-RNA/ssDNA, 10 mM Tris-HCl pH 7.5, 200 mM NaCl, 1 mM DTT, 1 mM EDTA, 5% glycerol, 25 °C, 30 min. The conditions noted are these: protein: recombinant; tags: C-terminal His-tag; label: 5'-FAM. In general terms: Polarisation of emitted light reports the rotation of a fluorescent probe.
As a reminder, the Kd is a measure of binding affinity in units of concentration. Turning to B1, the Kd came to 10.2 ± 1.97 µM.
Same read-out and setting: the same measure for B2: 61.5 ± 45.7 µM; for B3: 1.99 ± 0.35 µM; for B4: 28.1 ± 6.62 µM.
Consider B5, for which the equilibrium dissociation constant (Kd) was found to be 9.31 ± 1.93 µM.
On the same count and under the same terms, the same measure for B6: 71 ± 16.1 µM.
The same measure, in the same setting: for B7 the value was 2.13 ± 0.37 µM; for B8, 8.88 ± 2.32 µM.
Still for that read-out and setting: the same measure for B9: 1.21 ± 0.26 µM.
With B10, the dissociation constant Kd came to 2.34 ± 0.38 µM.
In the case of B11, the Kd was 199 ± 114 µM.
Same read-out and setting: the same measure for B12: 91.6 ± 17.6 µM; for B13: 15.3 ± 2.1 µM.
As to B14, the dissociation constant (Kd) worked out at 71.6 ± 16.9 µM.
The same measure, in the same setting: for B15 the value was 1.08 ± 0.21 µM; for B16, 63.6 ± 12.1 µM.
As for B17, the equilibrium dissociation constant (Kd) is 3.11 ± 0.48 µM.
Take B18: the Kd worked out at 8.77 ± 0.61 µM.
Still for that read-out and setting: for B19 the value was 1.16 ± 0.27 µM; for B20, 4.62 ± 0.55 µM.
On the same count and under the same terms, for B21 the value was 59.3 ± 21.2 µM.

In the next series the target is T1, RBM45 RRM3. As to the kind of experiment: fluorescence polarization; also printed as 33.6; FP: 100 nM FAM-RNA/ssDNA, 10 mM Tris-HCl pH 7.5, 200 mM NaCl, 1 mM DTT, 1 mM EDTA, 5% glycerol, 25 °C, 30 min. The conditions noted are these: protein: recombinant; tags: C-terminal His-tag; label: 5'-FAM.
With B22, the dissociation constant Kd amounted to 32.6 ± 6.22 µM.

A further series deals with T1, RBM45 RRM3. As to the kind of experiment: X-ray crystallography; 1.65 A; 0.1 M sodium succinate pH 5.3, 8% PEG 2000; FP: 100 nM FAM-RNA/ssDNA, 10 mM Tris-HCl pH 7.5, 200 mM NaCl, 1 mM DTT, 1 mM EDTA, 5% glycerol, 25 °C, 30 min. The conditions noted are these: protein: recombinant; tags: C-terminal His-tag.
For the molecule B23, the binding result is recorded as “binds”.

Another series addresses T1, RBM45 RRM3. As to the kind of experiment: fluorescence polarization; m6A comparison experiment; FP: 100 nM FAM-RNA/ssDNA, 10 mM Tris-HCl pH 7.5, 200 mM NaCl, 1 mM DTT, 1 mM EDTA, 5% glycerol, 25 °C, 30 min. The conditions noted are these: protein: recombinant; tags: C-terminal His-tag; label: 5'-FAM.
For the molecule B10, the dissociation constant Kd was determined as 3.17 ± 0.3 µM.
